Experimental data published in patent publication US20250213730A1 (Takeda / Millennium, published 2025).

Key:
[1] = molecular target: T1, Recombinant Human TfR Protein (R&D Systems; Catalog #2474-TR) (human, UniProt P02786 89-760); experiment: SPR (Biacore 8K+), I2S immobilized on CM5 by amine coupling, TfR as analyte
T1 construct: Bought reagent, injected as analyte in SPR; also called hTfR1; hTFR1
Method: (§1) Surface Plasmon Resonance (SPR) assays: Binding affinity between human/mouse receptor with Iduronate 2 Sulfatase or idursulfase (I2S) tagged with an anti-transferrin receptor binding single domain antibody (VHH) was determined using the Biacore 8K+ instrument (Cytiva; Danaher Corporation). In this experiment, samples were immobilized on a series S sensor chip CM5 (Catalog #29104988) via amine coupling. Samples immobilized (ligand) were i) I2S-VHH ii) VHH-I2S iii) I2S as negative control iv) Holo transferrin peptide as positive control. 1 ug/mL of ligand, reconstituted in Acetate pH 4.0, was immobilized on individual flow cells for 420 s, yielding a final immobilization level of approximately 350 Response Units. Recombinant Human TfR Protein (R&D Systems; Catalog #2474-TR) and Mouse TfR1 (TR06671428-001; Takeda) were injected on this surface (as analyte) with a concentration range of 5, 2.5, 1.25, 0.625 & 0.156 ug/mL. Analyte series was injected for 120 s, followed by a dissociation phase for a duration that yields at least 10% dissociation of analyte. Resulting sensograms were analyzed using the 1:1 Binding Model.

[2] = molecular target: T2, Mouse TfR1 (TR06671428-001; Takeda) (mouse, UniProt Q62351 89-763); experiment: SPR (Biacore 8K+), I2S immobilized on CM5 by amine coupling, TfR1 as analyte
T2 construct: Injected as analyte in SPR; also called mTFR1; mouse transferrin receptor 1
Method: as §1

T2 sequence (Q62351 89-763 limits assumed): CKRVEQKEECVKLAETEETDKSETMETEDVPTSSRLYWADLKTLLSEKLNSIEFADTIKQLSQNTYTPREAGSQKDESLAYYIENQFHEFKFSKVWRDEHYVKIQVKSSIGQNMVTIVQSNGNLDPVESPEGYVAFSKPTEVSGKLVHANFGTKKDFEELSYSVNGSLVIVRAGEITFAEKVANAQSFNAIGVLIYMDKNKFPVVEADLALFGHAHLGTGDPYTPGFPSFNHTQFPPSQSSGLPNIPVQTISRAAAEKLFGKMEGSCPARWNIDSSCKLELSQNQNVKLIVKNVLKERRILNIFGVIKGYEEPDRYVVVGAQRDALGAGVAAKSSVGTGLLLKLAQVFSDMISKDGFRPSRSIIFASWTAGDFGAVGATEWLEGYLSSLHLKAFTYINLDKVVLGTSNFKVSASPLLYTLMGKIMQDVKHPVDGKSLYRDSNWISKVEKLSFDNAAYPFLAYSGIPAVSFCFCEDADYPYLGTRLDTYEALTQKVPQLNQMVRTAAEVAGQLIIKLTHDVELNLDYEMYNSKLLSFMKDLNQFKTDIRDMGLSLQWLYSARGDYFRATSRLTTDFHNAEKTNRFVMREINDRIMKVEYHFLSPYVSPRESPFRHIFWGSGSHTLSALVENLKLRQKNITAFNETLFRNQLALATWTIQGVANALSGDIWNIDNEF
T1 sequence (P02786 89-760 limits assumed): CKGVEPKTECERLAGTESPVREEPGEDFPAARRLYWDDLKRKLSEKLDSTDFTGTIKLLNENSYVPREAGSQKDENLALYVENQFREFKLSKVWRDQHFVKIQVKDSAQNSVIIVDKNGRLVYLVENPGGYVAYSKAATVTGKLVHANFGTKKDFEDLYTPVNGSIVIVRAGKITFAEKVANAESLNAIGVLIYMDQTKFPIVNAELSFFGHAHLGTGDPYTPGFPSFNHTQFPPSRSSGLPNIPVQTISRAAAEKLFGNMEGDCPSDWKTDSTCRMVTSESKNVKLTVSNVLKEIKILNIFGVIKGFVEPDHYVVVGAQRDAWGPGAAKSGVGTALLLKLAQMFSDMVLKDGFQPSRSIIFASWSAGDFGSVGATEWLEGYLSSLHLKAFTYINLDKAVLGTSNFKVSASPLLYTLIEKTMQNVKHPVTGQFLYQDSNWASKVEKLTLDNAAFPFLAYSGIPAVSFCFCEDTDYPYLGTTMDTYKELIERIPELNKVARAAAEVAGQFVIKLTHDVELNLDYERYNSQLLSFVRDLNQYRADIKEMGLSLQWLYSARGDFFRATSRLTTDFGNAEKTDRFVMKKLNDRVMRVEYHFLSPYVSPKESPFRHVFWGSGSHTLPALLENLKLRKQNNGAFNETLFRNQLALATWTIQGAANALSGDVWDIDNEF

B1: I2S control (untagged human iduronate-2-sulfatase, purified protein) (enzyme)
chain: SETQANSTTDALNVLLIIVDDLRPSLGCYGDKLVRSPNIDQLASHSLLFQNAFAQQAVCAPSRVSFLTGRRPDTTRLYDFNSYWRVHAGNFSTIPQYFKENGYVTMSVGKVFHPGISSNHTDDSPYSWSFPPYHPSSEKYENTKTCRGPDGELHANLLCPVDVLDVPEGTLPDKQSTEQAIQLLEKMKTSASPFFLAVGYHKPHIPFRYPKEFQKLYPLENITLAPDPEVPDGLPPVAYNPWMDIRQREDVQALNISVPYGPIPVDFQRKIRQSYFASVSYLDTQVGRLLSALDDLQLANSTIIAFTSDHGWALGEHGEWAKYSNFDVATHVPLIFYVPGRTASLPEAGEKLFPYLDPFDSASQLMEPGRQSMDLVELVSLFPTLAGLAGLQVPPRCPVPSFHVELCREGKNLLKHFRFRDLEEDPYLPGNPRELIAYSQYPRPSDIPQWNSDKPSLKDIKIMGYSIRTIDYRYTVWVGFNPDEFLANFSDIHAGELYFVDSDPLQDHNMYNDSQGGDLFQLLMP
notes: Negative control in the SPR assay; also called idursulfase; IDS
[1]
  binding result: no binding (tested: analyte 0.156-5 ug/mL)
[2]
  binding result: no binding (tested: analyte 0.156-5 ug/mL)
